This note sets out measurements from PMC12041315, “UHRF1-mediated epigenetic reprogramming regulates glycolysis to promote progression of B-cell acute lymphoblastic leukemia” (Cell Death & Disease, 2025).

Assay [1] addresses T1, UHRF1 (Homo sapiens, UniProt Q96T88).
T1 sequence (Q96T88 1-793): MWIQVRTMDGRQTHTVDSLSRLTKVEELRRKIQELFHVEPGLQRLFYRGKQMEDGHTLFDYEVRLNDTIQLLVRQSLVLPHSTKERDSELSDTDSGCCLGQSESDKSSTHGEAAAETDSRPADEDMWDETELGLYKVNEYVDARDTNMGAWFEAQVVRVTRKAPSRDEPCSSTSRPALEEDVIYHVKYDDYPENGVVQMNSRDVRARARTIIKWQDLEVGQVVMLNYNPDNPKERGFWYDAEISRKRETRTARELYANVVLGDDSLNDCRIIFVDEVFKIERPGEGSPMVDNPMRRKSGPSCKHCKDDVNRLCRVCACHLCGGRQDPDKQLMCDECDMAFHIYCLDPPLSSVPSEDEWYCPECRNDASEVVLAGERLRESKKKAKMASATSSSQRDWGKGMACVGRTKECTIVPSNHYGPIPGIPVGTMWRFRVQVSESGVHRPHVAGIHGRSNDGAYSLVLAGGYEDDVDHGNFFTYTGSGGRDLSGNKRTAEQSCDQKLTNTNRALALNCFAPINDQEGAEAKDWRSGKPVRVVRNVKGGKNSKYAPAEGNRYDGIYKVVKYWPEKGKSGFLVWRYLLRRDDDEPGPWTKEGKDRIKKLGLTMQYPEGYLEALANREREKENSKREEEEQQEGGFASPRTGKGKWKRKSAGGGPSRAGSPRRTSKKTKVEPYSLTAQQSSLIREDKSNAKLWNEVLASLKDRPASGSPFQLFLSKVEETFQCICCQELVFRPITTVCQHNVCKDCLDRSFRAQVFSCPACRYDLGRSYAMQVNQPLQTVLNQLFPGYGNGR
Kind of assay: microscale thermophoresis. It counts as binding. The settings on record: RED-NHS labelled protein, 1 µM; room temperature, 30 min. For orientation: Microscale thermophoresis detects binding through changes in fluorescence in a small temperature gradient.

Assay [2] has as its target T2, WNT5A protein (UniProt P41221 62-380).
T2 construct: WNT5A protein
T2 sequence (looked up): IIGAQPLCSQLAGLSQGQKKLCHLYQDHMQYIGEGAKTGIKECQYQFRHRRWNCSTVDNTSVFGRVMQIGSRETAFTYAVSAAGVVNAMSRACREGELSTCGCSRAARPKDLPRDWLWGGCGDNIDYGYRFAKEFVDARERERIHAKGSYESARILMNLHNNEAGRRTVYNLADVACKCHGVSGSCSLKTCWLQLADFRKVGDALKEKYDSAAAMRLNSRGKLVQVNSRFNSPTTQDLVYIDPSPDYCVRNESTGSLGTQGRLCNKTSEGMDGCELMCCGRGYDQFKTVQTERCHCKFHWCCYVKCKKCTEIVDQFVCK
Description: BLI; biotinylated SFRP5 immobilised on the biosensor (ForteBio Octet RED 96e); WNT5A in Assay Buffer at 0.156 to 5 uM; global fitting model. The settings on record: both partners purified. A general note: BLI is a label-free optical method that tracks binding on a fibre tip over time.

The target of assay [3] is T3, biotinylated SFRP5 protein (secreted frizzled-related protein 5) (UniProt Q5T4F7 30-317, biotin (biotinylated; site not stated)).
T3 chain: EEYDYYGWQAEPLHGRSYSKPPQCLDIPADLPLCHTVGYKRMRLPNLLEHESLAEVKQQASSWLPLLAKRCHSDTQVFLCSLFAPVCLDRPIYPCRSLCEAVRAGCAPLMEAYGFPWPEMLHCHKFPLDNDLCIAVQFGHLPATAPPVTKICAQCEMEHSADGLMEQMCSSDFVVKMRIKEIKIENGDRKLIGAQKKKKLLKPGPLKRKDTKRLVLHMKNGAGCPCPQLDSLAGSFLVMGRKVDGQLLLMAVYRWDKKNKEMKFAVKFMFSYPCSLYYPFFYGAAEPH
Description: BLI.

For the molecule `Cc1nc(Nc2ncc(C(=O)Nc3cc(NC(=O)c4cccc(C(F)(F)F)c4)ccc3C)s2)cc(N2CCN(CCO)CC2)n1` [UM164], binding in assay [1] was put at a Kd of 10.2 µM.

B1: biotinylated SFRP5 protein (secreted frizzled-related protein 5) (natural protein, UniProt Q5T4F7 30-317, looked up)
chain: T3 chain
modifications: biotin (biotinylated; site not stated)
notes: secreted frizzled-related protein 5 (SFRP5)
With B1, the Kd (commonly the concentration at which binding is half-saturated) in assay [2] came out at 20.3 µM.

B2: WNT5A protein (natural protein)
chain: T2 sequence (looked up)
In assay [3], B2 registered an equilibrium dissociation constant (Kd) of 0.0203 µM.
